Test results reported in the supplement of paper PMC7877785.
± gives the uncertainty stated by the source.

Test: self-splicing fitness, log relative to wild type (ln ratio); higher = more splicing; Tetrahymena group I intron in knt gene, E. coli kanamycin selection, DiMSum; sequences stand for … in CUCUCU…GGAGGGAAAAGUUAUCAGGCAUGCACCUGGUAGCUAGUCUUUAAACCAAUAGAUUGCAUCGGUUUAAAAGGCAAGACCGUCAAAUUGCGGGAAAGGGGUCAACAGCCGUUCAGUACCAAGUCUCAGGGGAAACUUUGAGAUGGCCUUGCAAAGGGUAUGGUAAUAAGCUGACGGACAUGGUCCUAACCACGCAGCCAAGUCCUAAGUCAACAGAUCUUCUGUUGAUAUGGAUGCAGUUCACAGACUAAAUGUCGGUCGGGGAAGAUGUAUUCUUCUCAUAAGAUAUAGUCGGACCUCUCCUUAAUGGGAGCUAGCGGAUGAAGUGAUGCAACACUGGAGCCGCUGGGAACUAAUUUGUAUGCGAAAGUAUAUUGAUUAGUUUUGGAGUACUCGUGGUCG
In short: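 Library with all eight P1ex-region intron nucleotides randomised, intron inside the knt kanamycin-resistance gene on pET-22b(+), in E. coli BL21(DE3). Cells grew overnight at 37°C or 30°C on LB agar with or without 25 μg/mL kanamycin (plus 100 μg/mL carbenicillin, 50 μM IPTG, 0.2% rhamnose), in six replicate transformations. Pooled colonies were amplicon-sequenced on Illumina HiSeq 2500. DiMSum fitness is the error-weighted combination of wild-type-normalised replicate fold changes, kanamycin versus none.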

Sequence	self-splicing fitness (ln) (30 °C)	self-splicing fitness (ln) (37 °C)
UUGAAGCAAUAUUACGAGGA	-2.32 ± 0.16	-0.555 ± 0.19
UUGAAGCAAUAUUACGAGUU	-3.34 ± 0.17	-1.58 ± 0.17
UUGAAGCAAUAUUACGAUUC	-2.33 ± 0.18	-2.3 ± 0.28
UUGAAGCAAUAUUACGAUUU	-1.58 ± 0.17	-0.941 ± 0.18
UUGAAGCAAUAUUACGCCUA	0.0255 ± 0.13	0.487 ± 0.22
UUGAAGCAAUAUUACGCGUA	-0.169 ± 0.069	-0.247 ± 0.098
UUGAAGCAAUAUUACGCUAA	-0.361 ± 0.085	-0.109 ± 0.097
UUGAAGCAAUAUUACGCUCG	0.0719 ± 0.11	0.419 ± 0.14
UUGAAGCAAUAUUACGCUUC	-2.86 ± 0.49	-2.06 ± 0.39
UUGAAGCAAUAUUACGGACC	-1.12 ± 0.14	-0.125 ± 0.2
UUGAAGCAAUAUUACGGAGA	-0.684 ± 0.11	-0.479 ± 0.15
UUGAAGCAAUAUUACGGCCG	0.53 ± 0.14	0.318 ± 0.22
UUGAAGCAAUAUUACGGCGG	0.15 ± 0.11	0.55 ± 0.13
UUGAAGCAAUAUUACGGGGA	-0.685 ± 0.08	0.372 ± 0.12
UUGAAGCAAUAUUACGGGUA	-0.282 ± 0.065	-0.527 ± 0.081
UUGAAGCAAUAUUACGGUAC	-2.04 ± 0.22	-2.44 ± 0.31
UUGAAGCAAUAUUACGUAAU	-3.46 ± 0.21	-1.06 ± 0.13
UUGAAGCAAUAUUACGUAUA	-1.25 ± 0.11	-0.207 ± 0.14
UUGAAGCAAUAUUACGUCGA	0.473 ± 0.084	0.333 ± 0.093
UUGAAGCAAUAUUACGUCGC	-3.48 ± 0.23	-1.49 ± 0.24
UUGAAGCAAUAUUACGUCUC	-3.24 ± 0.28	-1.28 ± 0.23
UUGAAGCAAUAUUACGUGAG	-0.592 ± 0.067	-0.805 ± 0.093
UUGAAGCAAUAUUACGUGCC	-2.27 ± 0.15	-0.402 ± 0.16
UUGAAGCAAUAUUACGUGCG	-0.232 ± 0.063	-0.131 ± 0.078
UUGAAGCAAUAUUACGUGCU	-3.06 ± 0.17	-1.97 ± 0.16

Sequence	self-splicing fitness (ln) (30 °C)	self-splicing fitness (ln) (37 °C)
UUGAAGCAAUAUUACGUGGU	-3.78 ± 0.25	-2.94 ± 0.34
UUGCAGCAAUAUUACGACAG	-0.32 ± 0.11	0.414 ± 0.15
UUGCAGCAAUAUUACGACCA	-1.8 ± 0.24	-0.0142 ± 0.18
UUGCAGCAAUAUUACGAGGA	-2.08 ± 0.18	-0.954 ± 0.14
UUGCAGCAAUAUUACGAGGG	-2.78 ± 0.15	-0.707 ± 0.15
UUGCAGCAAUAUUACGCAAA	-1.35 ± 0.21	-2.35 ± 0.39
UUGCAGCAAUAUUACGCAGG	-3.72 ± 0.25	-2.68 ± 0.25
UUGCAGCAAUAUUACGCCAA	-1.25 ± 0.19	0.228 ± 0.24
UUGCAGCAAUAUUACGCGAG	-3.18 ± 0.12	-1.73 ± 0.12
UUGCAGCAAUAUUACGGAUG	-2.29 ± 0.085	-1.21 ± 0.1
UUGCAGCAAUAUUACGGAUU	-2.96 ± 0.23	-2.91 ± 0.33
UUGCAGCAAUAUUACGGCCC	-1.83 ± 0.31	-0.271 ± 0.47
UUGCAGCAAUAUUACGGCCG	-1.21 ± 0.096	-0.459 ± 0.12
UUGCAGCAAUAUUACGGGAC	-3.01 ± 0.25	-2.37 ± 0.39
UUGCAGCAAUAUUACGGGCC	-3.8 ± 0.22	-2.3 ± 0.17
UUGCAGCAAUAUUACGUAAU	-2.83 ± 0.098	-2.24 ± 0.14
UUGCAGCAAUAUUACGUCCG	-1.24 ± 0.1	0.0449 ± 0.14
UUGCAGCAAUAUUACGUGUA	-1.52 ± 0.11	-1.07 ± 0.1
UUGCAGCAAUAUUACGUGUG	-2.1 ± 0.087	-1.68 ± 0.12
UUGGAGCAAUAUUACGAAAC		-2.22 ± 0.37
UUGGAGCAAUAUUACGCAAG	-1.51 ± 0.22	-2.65 ± 0.44
UUGGAGCAAUAUUACGCAGU	-1.93 ± 0.34	-2.84 ± 0.48
UUGGAGCAAUAUUACGCUCU	-4.19 ± 0.39	
UUGGAGCAAUAUUACGCUUA	-2.03 ± 0.16	-2.35 ± 0.23
UUGGAGCAAUAUUACGCUUC	-3.11 ± 0.34	-0.757 ± 0.28

Sequence	self-splicing fitness (ln) (30 °C)	self-splicing fitness (ln) (37 °C)
UUGGAGCAAUAUUACGGAGC	-1.47 ± 0.38	
UUGGAGCAAUAUUACGGCAA	-0.805 ± 0.23	-0.671 ± 0.32
UUGGAGCAAUAUUACGGCAU		-1.76 ± 0.24
UUGGAGCAAUAUUACGGGAC	-4 ± 0.48	-0.322 ± 0.34
UUGGAGCAAUAUUACGGUCU	-3.4 ± 0.49	-2.45 ± 0.48
UUGGAGCAAUAUUACGGUGG	-3.06 ± 0.16	-3.08 ± 0.23
UUGGAGCAAUAUUACGGUGU	-3.09 ± 0.32	-1.64 ± 0.32
UUGGAGCAAUAUUACGUCAU	-3.84 ± 0.47	-1.45 ± 0.34
UUGGAGCAAUAUUACGUCCG	-2.22 ± 0.29	-1.27 ± 0.4
UUGGAGCAAUAUUACGUGCA		-1.94 ± 0.31
UUGGAGCAAUAUUACGUGGA	-2.9 ± 0.33	-2.24 ± 0.25
UUGGAGCAAUAUUACGUUGU	-4.09 ± 0.36	-1.77 ± 0.26
UUGUAGCAAUAUUACGAAAC		-2.66 ± 0.48
UUGUAGCAAUAUUACGAACG	-1.69 ± 0.31	-0.376 ± 0.26
UUGUAGCAAUAUUACGAAGU	-2.54 ± 0.28	-2.56 ± 0.48
UUGUAGCAAUAUUACGACGU	-1.48 ± 0.09	-0.671 ± 0.12
UUGUAGCAAUAUUACGAGCA	-1.49 ± 0.24	-0.799 ± 0.2
UUGUAGCAAUAUUACGAGCG	-1.01 ± 0.14	-0.454 ± 0.28
UUGUAGCAAUAUUACGAUCG	-1.06 ± 0.14	0.103 ± 0.23
UUGUAGCAAUAUUACGAUCU		-2.38 ± 0.27
UUGUAGCAAUAUUACGCACG	-1.14 ± 0.11	-0.742 ± 0.13
UUGUAGCAAUAUUACGCAGG	-1.6 ± 0.24	0.28 ± 0.17
UUGUAGCAAUAUUACGCUAG	-2.06 ± 0.22	-0.816 ± 0.21
UUGUAGCAAUAUUACGGGCU	-2.88 ± 0.29	-1.62 ± 0.22
UUGUAGCAAUAUUACGGGGA	-1.98 ± 0.26	-0.346 ± 0.17

Sequence	self-splicing fitness (ln) (30 °C)	self-splicing fitness (ln) (37 °C)
UUGUAGCAAUAUUACGGGUG	-2.02 ± 0.11	-0.808 ± 0.096
UUGUAGCAAUAUUACGGGUU	-4.7 ± 0.34	-2.83 ± 0.3
UUGUAGCAAUAUUACGUAAA	-1.72 ± 0.22	-0.0948 ± 0.21
UUGUAGCAAUAUUACGUGAU	-3.14 ± 0.17	-1.01 ± 0.15
UUUAAGCAAUAUUACGACGU	-1.73 ± 0.15	-0.17 ± 0.15
UUUAAGCAAUAUUACGAGUU	-2.48 ± 0.17	-2.09 ± 0.17
UUUAAGCAAUAUUACGAUAG	-0.412 ± 0.096	-0.23 ± 0.097
UUUAAGCAAUAUUACGAUCU	-1.05 ± 0.1	-0.724 ± 0.13
UUUAAGCAAUAUUACGAUGU	-2.45 ± 0.14	-1.96 ± 0.18
UUUAAGCAAUAUUACGCCGG	-0.192 ± 0.089	0.194 ± 0.11
UUUAAGCAAUAUUACGCCUU	-0.228 ± 0.34	-1.35 ± 0.36
UUUAAGCAAUAUUACGCGAC	-2.4 ± 0.18	-2.75 ± 0.22
UUUAAGCAAUAUUACGCGCG	0.181 ± 0.12	-0.26 ± 0.14
UUUAAGCAAUAUUACGCGGA	-1.6 ± 0.098	-0.0901 ± 0.084
UUUAAGCAAUAUUACGCUUU	-3.6 ± 0.35	-2.95 ± 0.23
UUUAAGCAAUAUUACGGAAA	-2.33 ± 0.23	-0.53 ± 0.23
UUUAAGCAAUAUUACGGAGA	-2.18 ± 0.21	-0.727 ± 0.17
UUUAAGCAAUAUUACGGGAG	-1.75 ± 0.089	-1.32 ± 0.1
UUUAAGCAAUAUUACGGGGA	-1.27 ± 0.1	-0.724 ± 0.11
UUUAAGCAAUAUUACGGUUC	-3.56 ± 0.21	-2.47 ± 0.2
UUUAAGCAAUAUUACGUAAC	-3.67 ± 0.29	-2.17 ± 0.19
UUUAAGCAAUAUUACGUAGG	-0.802 ± 0.058	-0.287 ± 0.086
